# Tests used:
# Assay in all cases: cross-linking; engineered disulfide bridge in purified EF1; overnight with 400 µM DTNB (oxidised), 10 mM DTT (reduced), 30 mM DTT (re-reduced); SDS-PAGE with non-oxidizing sample buffer, Coomassie; yield from the change of the γ-band, oxidized against reduced; immunoblots against α and γ
# [1] = molecular target: E. coli F1-ATPase subunit α with αP281C, in the cysteine-free EF1 mutant FH4 (Escherichia coli) (UniProt P0ABB0)
# [2] = molecular target: E. coli F1-ATPase subunit α with αP280C, in the cysteine-free EF1 mutant GH54 (Escherichia coli) (UniProt P0ABB0)
# [3] = molecular target: E. coli F1-ATPase subunit α with αE284C, in the cysteine-free EF1 mutant GH19 (Escherichia coli) (UniProt P0ABB0)
substance,measurement,setting,value
"E. coli F1-ATPase subunit γ with γK109C and γI279C, in the cysteine-free EF1 mutant FH4 (natural protein)",cross-link yield,[1],85%
"E. coli F1-ATPase subunit γ with γK109C, γA213C and γG282C, in the cysteine-free EF1 mutant GH54 (natural protein)",cross-link yield,[2],90%
"E. coli F1-ATPase subunit γ with γK109C, γA213C and γL276C, in the cysteine-free EF1 mutant GH19 (natural protein)",cross-link yield,[3],> 95%

# Reference: publication PMC3536650
